Assay results published in the RNAGym collection of RNA variant scans (doi:10.1073/pnas.2313332121).
Fewer inactive variants are shown than the library holds.

B1: TPR 5TU (parent)
chain: GGAUCUUCUCGAUCUAACAAAAAAGACAAAUCUGCCACAAAGCUUGAGAGCAUCUUCGGAUGCAGAGGCGGCAGCCUUCGGUGGCGCGAUAGCGCCAACGUUCUCAACUAUGACACGCAAAACGCGUGCUCCGUUGAAUGGAGUUUAUCAUG

Variants of: B1
Assay: polymerase ribozyme fitness, log enrichment relative to wild type (log ratio); higher = more active; in vitro selection for triplet polymerase activity
Summary of the method: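 Mutant libraries for each subunit of a heterodimeric triplet polymerase ribozyme were made by PCR and then transcribed. Each library underwent one round of in vitro selection in triplicate: annealing with a biotinylated primer, the partner subunit and triplets, frozen incubation at −7 °C, gel excision of extended constructs, streptavidin-bead capture and RT-PCR. Input and output libraries were Illumina-sequenced, and only genotypes with ≥10 input reads and ≥1 read per output were kept. Fitness is the logarithm, base 2, of genotype enrichment over wild-type enrichment, computed from inverse-variance-weighted replicate averages.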
With GGUUCUUCUCGAUCUAACAAAAAAGACAAAUCUGCCACAAAGCUUGAGAGCAUCUUCGGAUGCAGAGGCGGCAGCCUUCGGUGGCGCGAUAGCGCCAACGUUCUCAAGUAUGACACGCAAUACGCGUGCUCCGUUGAAUGGAGUUUAUCAUG the “polymerase ribozyme fitness (log ratio)” value was at most -4.2.
With GGUUCUUCUCGAUCUAACAAAAAAGACAAAUCUGCCACAAAGCUUGAGAGCAUCUUCGGAUGCAGAGGCGGCAGCCUUCGGUGGCGCGAUAGCGCUAACGUUCUCAACUAUGACACGCAAAACGCGUGCUCCGUUGAAUGGAGUUUAUCAUG the “polymerase ribozyme fitness (log ratio)” value was -0.0857.
With GGUUCUUCACGAUCUAACAAAACAGAGAAAUCUGCCACAAAGCUUGAGAGCAUCUUCGGAUGCAGAGGCGGCAGCCUUCGAUGGGGCGAUAGCGCCAACGUUCUCAACUAUGACACGCAAAACGCGUGCUCAGUUGAAUGGAGUUUAUCAUG the “polymerase ribozyme fitness (log ratio)” value was at most -4.2.
In the case of GGUUCUUCUCGAUCUAACAAAAAAGACAAAUCUGCCACAAAGCUUGAGAGCAUCUUCAGAUGCAGAGGCGGCAGCCUUCGGUGGCGCGAUAGCGCCAACGUUCUCAACUAUGACACGCAAAACGCGUGCACCGUUGAAUGGAGUUUAUCAUG, the “polymerase ribozyme fitness (log ratio)” value is reported as -3.64.
In the case of GGUUCUUCUCGAUCUAACAAAAAAGACAAAUCUGCCACAAAGCUUGAGAGCAUCUUCGUAUGCAGAGGCGGCAGCCUUCGGUGGCGCGAUAGCGCCAACGUUCUCAACUAUGACACGCAAAACGCGUGCUCCGUUGAAUGGAGUUUAUCAUG, the “polymerase ribozyme fitness (log ratio)” value is reported as -0.0606.
With GGUUCUUCUCGAUCUAACAAAAAAGACAAAUCUGCCACAAAGCUUGAGAGCAUCUUCGGAUGCAGAGACGGCAGCCAUCGGUGGGGCGAUAGCGCCAACGUUCUCAACUAUGACACGCAAAACGCGUGCUCCGUUGAAUGGAGUUUAUGAUG the “polymerase ribozyme fitness (log ratio)” value was at most -4.2.
For GGUUCGUCUCGAUCUAACAAAAAAGACAAAUCUGUCACAAAGCUUGAGAGCAUCUUCGGAUGCAGAGGCGGCAGCUUUCGGUGGCGGGAUAGCGCCAACGUUAUCAACUAUGACACGCAAAACGCGUGCUCCGUUGCAUGGAGUUUAUCAUA, the “polymerase ribozyme fitness (log ratio)” value was at most -4.2.
In the case of GGUUCUUCUCGAUCUAACAAAAAAGACAAAUCUGCCACAAAGCUUGAGAGCAUCUUCGAAUGCAGAGGCGGCAGCCUUCGGUGGCGCGAUAGCGCCAACGUUCUCAACUAUGACACGCAUAACGCGUGCUCCGUUGAAUGGAGUUUAUCAUG, the “polymerase ribozyme fitness (log ratio)” value is reported as -0.556.
With GGUCCUUCUCGAUCUAACAAAAAAGACAAAUCUGCCACAAAGCUUGAGAGCAUCUUCGGAUGCAGAGGCGGCAGCCUUCGGUGGCGCUAUAUCGCCGACGUUCUCAACUAUGACACGCAAAACGCGUGCUCCGUUGAAUGGAGUUUAUCAUG the “polymerase ribozyme fitness (log ratio)” value was at most -4.2.
In the case of GGUUCUUCUCGAUCUAACAAAAAAGACAAAUCUGCCACAAAGCUUGAGAGCAUCUUCGGAUGCAGAGGCGGCAGCCUUCGGUGGCGCGAUAGCACCAACGUUCUCAACUAUGACACCCAAAACGCGUGCUCCGUUGGAUGGAGUUUAUCAUG, the “polymerase ribozyme fitness (log ratio)” value is reported as -3.
In the case of GGUUCUUCUCGAUCUAACAAAAAAGACAAAUCUGCCACAAAGCUUGAGAGCAUCUUCGAAUGCAGAGGCGGCAGUCUUCGGUGGCGCGAUAGAGCCAACGUUCUCAACUAUGACACGCAAAACGCGUGCUCCGUUGAGUGGAGUUUAUCAUG, the “polymerase ribozyme fitness (log ratio)” value is reported as -3.95.
With GGUUCAUCUCGAUCUAACUAAAAAGACAAAUCUGCCACAAAUCUUGAGAGCAUCUUCGGAUGCAGAGGCGGCAGCCUUCGGUGGCGCGAUAGCGCCAACGUUCUCAACUAUGGCACGCAAUACCCGUGCUCCGUUGAAUGGAGUUUAACAUG the “polymerase ribozyme fitness (log ratio)” value was at most -4.2.
In the case of GGUUCGUCUCGAUCUAACAAAAAAGACAAAUCUGCCACAAAGCUUGAAAGCAUCUUCGGAUGCAGAGGCGGCAGCCUUCGGUGGCGCGAUAGCGCCAACGUUCUCAGCUAUGACACGCAAAACGCGUGCUCCGUUGAAUGGAGUUUAUCAUG, the “polymerase ribozyme fitness (log ratio)” value is reported as at most -4.2.
With GGUUCUUCUCGAUCUAACAAAAAAGACAAAUCUGCCACAAAGCUUGAGAGCAUCUUCGGAUGCAGAGGCGGCAGCCUUCGGUAGCGCGAUAGCGCCAACGUUCUCAACUAUGACACGCGAAACGCGUGCUCCGUUGAAUGCAGUUUAUCAUG the “polymerase ribozyme fitness (log ratio)” value was -1.17.
In the case of GGUUCUUCUCGAUCUAACAAAAAAGACAAAUCUGCCACAAAGCUUGAGAUCAUCUUCGGAUGCAGAGGCGGCAGCCUUCGGUGGCGCGAUAGCGCCAACGUUCUCAACUAUGACACGCAAAACGCGUGCUCCGUUGAAUGGAGUCUAUCAUG, the “polymerase ribozyme fitness (log ratio)” value is reported as -0.472.
For GGUUCUUCUCGAUCUAACAAAAAAGACAAAUCUGCCACAAAGCUUGAGAGCAUCUUCGGAUUCAGAGGCGGCAGCCUUCGGUGGCGCGAUAGCGCCAACGUUCUCAACUAUGACACGCAAAACGCGUGCUCCGUUGAAUGGAGUUUAUCAUG, the “polymerase ribozyme fitness (log ratio)” value was -0.505.
In the case of GGUUCUUCUCGAUCUAACAAAAAAGACAAAUCUGCCACAAAGCUUGAGAGCAUCUUCGGAUGCAGAGGCGGCAAGCUUCGGUGGCGCGAUUGCGCCAACGUUCUCAACUAUGACACGCAUAACGCGUGCUCUGUUGAAUGGAGUUUAUCAUG, the “polymerase ribozyme fitness (log ratio)” value is reported as at most -4.2.
For GGUUCUUCUCGAGCUAACAAAAAAGACAAAUCUGCCACAAAGCUUGAGAGCAUCUUCGGAUGCAGAGGCGGCAGCCUUCGGUGGCGCGAUAGCGCCAACGUUCUCAACUAUGACACGCAAAACGCGUGCUCCGUUGAAUGGAGUUUAUCAUG, the “polymerase ribozyme fitness (log ratio)” value was 0.0481.
In the case of GGUUCUGCUCGAUCUAACAAAAAAGACAAAUCUGCCACCAAGCUUGAGAGCAUCUACGGAUGCAGAGGCGGCAGCCUUCGGUCGCGCGAUAGCGCCAACGUUCUCAACUAUGACACGCAAAACGCGUGCUCUGUUGAAUGGAGCCUAUAAUG, the “polymerase ribozyme fitness (log ratio)” value is reported as at most -4.2.
